{"source": "the DeepSol protein solubility set"}
{"experiment": "soluble on expression in E. coli; label from the status in PepcDB or PDB records"}
{"sequence": "GPLGSPQMAQGTLIRVTPEQPTHAVCVLGTLTQLDICSSAPEDCTSFSINASPGVVVDIAHSPPAKKKSTGSSTWPLDPGVEVTLTMKAASGSTGDQKVQISYYGPKTPPVKALLYLTAVEISLCADITRTGKVKPTRAVKDQRTWTWGPCGQGAILLVNCDRDNLESSAMDCEDDEVLDSEDLQDMSLMTLSTKTPKDFFTNHTLVLHVARSEMDKVRVFQATRGKLSSKCSVVLGPKWPSHYLMVPGGKHNMDFYVEALAFPDTDFPGLITLTISLLDTSNLELPEAVVFQDSVVFRVAPWIMTPNTQPPQEVYACSIFENEDFLKSVTTLAMKAKCKLTICPEEENMDDQWMQDEMEIGYIQAPHKTLPVVFDSPRNRGLKEFPIKRVMGPDFGYVTRGPQTGGISGLDSFGNLEVSPPVTVRGKEYPLGRILFGDSCYPSNDSRQMHQALQDFLSAQQVQAPVKLYSDWLSVGHVDEFLSFVPAPDRKGFRLLLASPRSCYKLFQEQQNEGHGEALLFEGIKKKKQQKIKNILSNKTLREHNSFVERCIDWNRELLKRELGLAESDIIDIPQLFKLKEFSKAEAFFPNMVNMLVLGKHLGIPKPFGPVINGRCCLEEKVCSLLEPLGLQCTFINDFFTYHIRHGEVHAGTNVRRKPFSFKWWNMVP", "soluble on expression in E. coli": "soluble"}
{"sequence": "MEKLAIGVDVGTTQAKAVAFQANGTVVASSYVRYPLIQETEGMAEQDPETLFQAVVNCIRTVTQQVKNQPIGLISFASAMHGLIAMDAQGRPLTQVITWADTRASDYAEALKETPAAQLFYQLTGMPVHPMAPLYKIRWLQENQPAVAQSAAKFIGIKDYIFYRFFGEYWTDYSSASGMGLFNIHTRQWETSILAYLSIEEEQLPKVAPSTFIFPALAPSWQEMLGVEEETVLVLGGADGPLSNLGLGALGMGVATLTVGTSGALRYIVEEPFLHPQGETFCFALDEQHWVIGGASSNGAVALDWASQTIFAEERQQAIQNGTNLYDPIMAKIATVPAGANGLLFHPYLLGERAPLWNAEASASFIGLRKNHHAGHLARAVVEGICFNLKTILEDLKQLGGPVQEIRATGGFADSPVFRQIMADVLGETLSFTDSTEASALGAVLLGWQGLGQLPNLQAAAQQVLIHETVTPRADQLLVYQELYPVFQETQQVLAQSYQKLAEFRK", "soluble on expression in E. coli": "not soluble"}
{"sequence": "MITVNTLQKMKAAGEKIAMLTAYESSFAALMDDAGVDVLLVGDSLGMAVQGRQSTLPVSLRDMCYHTECVARGAKNAMIVSDLPFGAYQQSKEQAFAAAAELMAAGAHMVKLEGGVWMAETTEFLQMRGIPVCAHIGLTPQSVFAFGGYKVQGRGGKAQALLNDAKAHDDAGAAVVLMECVPAELAKKVTESVSCPTIGIGAGVDCDGQVLVMHDMLGIFPGKTAKFVKNFMQGQSSIQAAVRAYVAEVKAKTFPAAEHIFAD", "soluble on expression in E. coli": "not soluble"}
{"sequence": "MEENSKLGLIDVFTGDGKGKTTAAFGLAFRALGWGYRVYILQFMKTGVYGENKSAIMFDRNLKVDFVGMPYFIAWENEIPKEDLDKVKNVVICKKGHPPDDYRRAVKERFDRSLEELKSGKWDMFIYDEINVALYYYLLSMEEVMEIFKAKPDHTELVFTGRKMPKEIMERADLITEVSSPRHPYQRGILARRGVDF", "soluble on expression in E. coli": "not soluble"}
{"sequence": "MGSDKIHHHHHHMKYEIVLKGSYALLKVFLSTGESVVVEPGAMVYMKGPIEVKTSATGGVWKALKRAILGGENFFMNTYISRGESEIGLAPQLPGDIDVIPLKDILYVQSTSFLACDPSVEMDVSFGGLKSFFSGEGIFLLKFIGHGDVAVSSFGGIKSVELQPGEEFTVDTGHVVAFDGTVKWNVRTFGGLKSTLFGGEGLVCTFTGPGRVYIQTRNYPAFVEWIKSLVPRQTGSR", "soluble on expression in E. coli": "not soluble"}
{"sequence": "MGSDKIHHHHHHMRVLVTGANGFVGSRLAGQLGRSDHFSLACAVRTTGTCRFGEEYSIGELGPKTDWSAALRGQDVVVHLAARAHVMDDEAPDPLVEYRRVNVDGTLNLARQAIDAGVRRFVFVSSIKVNGEQTDLGQPFTSDQITAPADAYGISKLEAERGLLALGKESGMEVVIIRPPLVYGPGVKGNFATLIKLVEKGFPLPLGAISNKRTLVSLDNLVDLIQVCIDHPAAANEVFLAGDNSDLSTSELLREIGKAVGKPARLIPVPQGFLMVAARLLGKTDVARRLFGSLQVDISKARHLLGWEPPVSVEEGLRRCFELESRS", "soluble on expression in E. coli": "not soluble"}
{"sequence": "QYRIIDFKRDKDGIPGRVATIEYDPNRSANIALINYADGEKRYIIAPKNLKVGMEIMSGPDADIKIGNALPLENIPVGTLVHNIELKPGRGGQLVRAAGTSAQVLGKEGKYVIVRLASGEVRMILGKCRATVGEVGN", "soluble on expression in E. coli": "soluble"}
{"sequence": "MNRIIDMRCRPPLPEFREYFDIPRITWHGARTGAKQVSRAFVEGSMDLFFEEMDQAGIEIAVVQGRNSPAVFMGKQFNAAFIPNERLAQIQDQYAGRFVCFAGIDVSNTAHNAVEETVRSIKSLGLKGIFIEPGRQIQSTPDDERIFPVYEKCIELDIPVNLMSGPYAGADIGVSDPLYVDRLCTRYPELKIILGHGGYPYVQQILGVAFKHTNLFVSPDMYVFAPGGQAYIDAANGALRDQMVYGSAYPLRPVTQTVSDTLGLGLSADSERAYLELNARKLLNIAAALEHHHHHH", "soluble on expression in E. coli": "not soluble"}
{"sequence": "SNAMPVRVIVDSSACLPTHVAEDLDITVINLHVMNNGEERSTSGLSSLELAASYARQLERGGDDGVLALHISKELSSTWSAAVTAAAVFDDDSVRVVDTSSLGMAVGAAAMAAARMAKDGASLQECYDIAVDTLKRSETWIYLHRIDEIWKSGRISTATAMVSTALATRPIMRFNGGRMEIAAKTRTQSKAFAKLVELAQIRADGEPVFIAIGQNEAREAAKQLEELLRNALPEGSSFMSVDIDPTLAVHSGPGAVSVSAVFANQAPELSTGKAGAK", "soluble on expression in E. coli": "soluble"}
{"sequence": "MPGERFSHSRCHAIAIKELQRRTENRDGTALHILPKSQRKLAIFLINMDSATKRLTDMNARLDAMGLKAERVAGVNGRELQYPIPEFSEISYMLMHGRRTSPPEIGCYLSHVACANKFMTGDADIALILEDDVVFEDDFLDAIDEAVLNGNDWDILRLTTVSNGRKFAFRALSNGRSLAVALTREKGSGAYLVNRRAGKWISKLIPMRLAYDIAFDLEYLSGLKAAFIYPLCATQDADGESQIQNNLRIYRLPRWRYFTVLPYRAYLETSRFLLRGLRFLVAKAKVAMERGKPKAVQAGRLEHHHHHH", "soluble on expression in E. coli": "soluble"}
{"sequence": "MGSDKIHHHHHHMNLAAFEAFVKVMETGSISVAADQLFITQPAVTKRIHSLEEYFGVKLFESAGRGVQATHAAHSLLPKVKSWLNELRDIHHTLSHEQTQIQGRLKIGTSHHIGLHHLPAPLKHFVQQFPQVTLDVHFVDSEQAHEQVLAGDLELAFLTLPPSGDERLNYITIWNDPLVFVAAPFHPLAQKKNLTLQDLIEYPSLLPAAQTYTAQITLAEFEKQGLKPKITMSNNPLESIRMLVSIGLGWSVLPKTLLNQDMQQLDLNVEMNRQLGMVWHPARTQSRAMQELIKMMQE", "soluble on expression in E. coli": "not soluble"}
{"sequence": "MSGELRVRRASSWELDLILKEAEKYGELLHEFFCVVEGKYRDVYAVNEEVWKIIEDINMRPYSLGTFVGTIRVDENLVEKFYPNLEFFSLIKLEKNYVILGPKASFLFTTGKDAPKEAVREIKWQGSKRVVVLNDLGDIIGIGLINPKSDRRFIKNLKDVGEFLRR", "soluble on expression in E. coli": "soluble"}
{"sequence": "MSLSKMEEILVIGVNTRPVVESAFRLGYRVYSAGYYCTADFKHYTERRCILRERSGESCGRFHENFSQEKLLEAASDFIERADGIIPLTGAPPLPGEKVLGNSRVDHVEDKYRLYRRIRNSYPTPETHLISDPAEAMEIVAAGEKKYIAKPVSGAGGFGVTEFREGDGEFLLQEYIEGVPVSASVLSTGEDAITVLTSRQIIDRGVPGFEGQFVYAGNMTPGPSGEIEDLASDLILDLSLRGSNGVDLIMRDSELYVIEVNPRIQGTFECAEASLGINMVDAHIRACMGELIEKPDPVSYAVKRILYAPARCRVGEIKTMGVHDLPVPGTIIEEGEPLLTVLASHNSMEAAENLASNICSRVKKELHYLRCPPPRPQGVEGHHHHHH", "soluble on expression in E. coli": "not soluble"}
{"sequence": "MEPHLKIDVSSASGSTTTGATASTSEAPQDSQAQQTMPPPSSDWSNQFNSPEAEDMGPFVEQLLPFVRASAYNWFHLQAAKRRHFKEFDKKMCASEENAKLAELQNDRDELKVKWASRLLGKIKKDIQNDDKEAFISAINGSEPNKCIISVADQKGKMRRIDCLRQADKVWRLDLVTIILFKGIPLESTDGERLERSEACVHPLCINPFHMAISVRGLDVFMANYLKDVDTKITLTYPRNDELSDTVMVKQEPGEQTIVAPHAVLGTSSTHTRVWETNSERNAETIIITYDPQKACHTYFGGRATLAQQSLSAGNTYMVNKTAVDNNFFNAKRSVLCLPPPPIQNCFPYPIAGTSDSQQMDMSEDSNDGPSEKRSRDISSHDSPNSSTNDEVRRIVESGTEKLVLGSSIWAAPGQFSRTQQNQGAPGTSRQVRPLPDFQSQDSARSPGAFRSTAKPVCRMTVNTGNHGDVGVVVVDERNREHVIHAQHIVNALSSLRTTPSMRESPVGRKRMHPHTSNSFEFLNCNQEMNKNEGALGSDISPTHTAVSNLISRESSGYMASPTKFTTARGDTTSFSKIFQKIEEKHLQHNQPSTSYCNSQIQPPILSSKPVDSSVKLIAPVAVKPIMSGCNSIIPSPITTPRITPSFRMLEDDSLINVLGQLAHSNDGTTLNDSFIQHLIDTNSRSPLLSSGNAFSALSMGARIEFVGCSNGIGRSSKYCTGRPANSKCNVTSSSRAANQAPVSNTPQDPNAPKLPTDFSHALRNEKK", "soluble on expression in E. coli": "not soluble"}
{"sequence": "MAHHHHHHMATDLDSFSTYIDHLILLLAARFHAPLEVSVEELLPSSMNLSAEAQCPWELVACSVQQALRTPQTAQERLLMRHLDVHHFSASVCRERARYMQWKLQECRRRRGDKQQLVQSPAVPSAARANTSSTVAASATAAGQPCDVACTSLHNDVCSLYKLVLQSLPSTLGGTESDDDEEDAQAPTTSVQSLASASEPSSFERVHEVFMRTPAEQERDELVARARDEFLSQVQALQSVYYEKYHRWMDVPASVLDPPPASSKQPASTDGAAAALESAAPQRGSESERAALLEALGAAAAPPPRHRKQANHASSSGAADWTEKPHTLASMLHQVQLRRPLRPSAVSDDVLESLYRARAETEEAPKNLCVASGLRSCPPAASTSATPSFAGGCADTITAEAVAVAPSSSQPSSSVAAVRKDTVPPASRRGRWQIVEYDDDDDGEG", "soluble on expression in E. coli": "not soluble"}
{"sequence": "MAHHHHHHMRKLSGDLKATAATPLTPPVTTPQPQPDGTDRSKSAGGQATYEPLHVLGQGSFGVVMMARVRETGKMVAVKKVLFDRRLHHRELLLLRDHLGPGTHAGQAGTGNHDDPGKEAGKTDPSNTNNSAGEVGFTPLGDLASVPTTVSYHPCIVRLLDHFTVAGPNGEQYLYIVMDYLPLDIHHLHHIYLRQKQQRMPFILVKVIMFQLARALMFLHLRGICHRDVKPSNLLIDPETGVLKLCDFGSAKVMQPQGVNGPIEKNVSYICSRYYRAPELLLGSLYYHFHVDMWAAGCVLAELLCGEVLFKGASTVDQMAEIFKVLGAPSRQELLALNPQGAEALFHATGAGLEVTPTSAANTATSSDYLQRYHALRIKALQWQNVLPPNTPPAAVSLVGELLRYTPAERLSAAEVLEHSFFDDIFAEDASLPNGAPLPVSMFEVTAEEMEALPPWLLERMASAEASARRRHVSAGGSGKVVPPQKRQEQEGRK", "soluble on expression in E. coli": "not soluble"}
{"sequence": "MGSDKIHHHHHHMIFINSRFLTQDVSGVQRYAEQMCRALQRLRNDLIFVAPRNIRLHDCAKALDVQHIGHATGHLWEQVDLPLHLKRKGNPLLVSISNTGPMFYANQIATHHDINYVRYPQSYTRLFRLAYRTITPILLSRARTLITGSSFSRGEIASFYGYAEDKVLVLPAAVSDDFTPRAVHRDQPDYLLAVSSPAAHKNFNRMIQAFLSLRGHADLQLHIVGAASSLFADPNLQRLACRDPRIRFLGRLSDAELIEQYQGASAFVFPSLYEGFGIPPLEAQACGCPVLAANAASIPEVLQASALYFDPLDVSHMAAAMHRVLSDAPLRQALRRQGLKNVQRFSWEISAQRLSQRIDALLEPAVQGKHHVAPESSPGKP", "soluble on expression in E. coli": "not soluble"}
